Results: US20200199241A1 (Chugai, published 2020)
Where a chain is given by its changes, count along the chain named.

B1: IgG1-F240 (antibody)
heavy: QVQLQESGPGLVKPSETLSLTCAVSGHSISHDHAWSWVRQPPGEGLEWIGFISYSGITNYNPSLQGRVTISRDNSKNTLYLQMNSLRAEDTAVYYCARSLARTTAMDYWGEGTLVTVSSASTKGPSVFPLAPSSKSTSGGTAALGCLVKDYFPEPVTVSWNSGALTSGVHTFPAVLQSSGLYSLSSVVTVPSSSLGTQTYICNVNHKPSNTKVDKKVEPKSCDKTHTCPPCPAPELLGGPSVFLFPPKPKDTLYISRTPEVTCVVVDVSHEDPEVKFNWYVDGVEVHNAKTKPREEQYNSTYRVVSVLTVLHQDWLNGKEYKCKVSNKALPAPIEKTISKAKGQPREPQVYTLPPSRDELTKNQVSLTCLVKGFYPSDIAVEWESNGQPENNYKTTPPVLDSDGSFFLYSKLTVDKSRWQQGNVFSCSVFHEALHYHYTQKSLSLSP
light: not shown
notes: EU numbering; copies: 2 + 2
B2: IgG1-F285 (antibody)
heavy: B1 heavy with V310P
light: not shown
notes: EU numbering; copies: 2 + 2
B3: IgG1-F270 (antibody)
heavy: B1 heavy with N327G
light: not shown
notes: EU numbering; copies: 2 + 2
B4: IgG1-F286 (antibody)
heavy: B1 heavy with S241K, V310P, E384A, F430Y
light: not shown
notes: EU numbering; copies: 2 + 2
B5: IgG1-F266 (antibody)
heavy: B1 heavy with T309A, E384A, F430Y
light: not shown
notes: EU numbering; copies: 2 + 2
B6: IgG1-F252 (antibody)
heavy: B1 heavy with F430W
light: not shown
notes: EU numbering; copies: 2 + 2
B7: IgG1-F272 (antibody)
heavy: B1 heavy with E382A
light: not shown
notes: EU numbering; copies: 2 + 2
B8: IgG1-F249 (antibody)
heavy: B1 heavy with F430S
light: not shown
notes: EU numbering; copies: 2 + 2
B9: IgG1-F275 (antibody)
heavy: B1 heavy with S241K, V310P, E384A, F430M
light: not shown
notes: EU numbering; copies: 2 + 2
B10: IgG1-F279 (antibody)
heavy: B1 heavy with V310P, Q313H, E384A, F430M
light: not shown
notes: EU numbering; copies: 2 + 2
B11: IgG1-F268 (antibody)
heavy: B1 heavy with P240A
light: not shown
notes: EU numbering; copies: 2 + 2
B12: IgG1-F243 (antibody)
heavy: B1 heavy with F430I
light: not shown
notes: EU numbering; copies: 2 + 2
B13: IgG1-F256 (antibody)
heavy: B1 heavy with Y254W, T309Q, Q313A, F430Y
light: not shown
notes: EU numbering; copies: 2 + 2
B14: IgG1-F263 (antibody)
heavy: B1 heavy with T309Q, Q313H, F430M
light: not shown
notes: EU numbering; copies: 2 + 2
B15: IgG1-F262 (antibody)
heavy: B1 heavy with T309A, Q313H, F430M
light: not shown
notes: EU numbering; copies: 2 + 2
B16: IgG1-F284 (antibody)
heavy: B1 heavy with V310P, F430Y
light: not shown
notes: EU numbering; copies: 2 + 2
B17: IgG1-F247 (antibody)
heavy: B1 heavy with F430Q
light: not shown
notes: EU numbering; copies: 2 + 2
B18: IgG1-F250 (antibody)
heavy: B1 heavy with F430T
light: not shown
notes: EU numbering; copies: 2 + 2
B19: IgG1-F277 (antibody)
heavy: B1 heavy with S241K, V310P, F430Y
light: not shown
notes: EU numbering; copies: 2 + 2
B20: IgG1-F282 (antibody)
heavy: B1 heavy with V310P, E384A, F430L
light: not shown
notes: EU numbering; copies: 2 + 2
B21: IgG1-F244 (antibody)
heavy: B1 heavy with F430K
light: not shown
notes: EU numbering; copies: 2 + 2
B22: IgG1-F264 (antibody)
heavy: B1 heavy with E384A, F430M
light: not shown
notes: EU numbering; copies: 2 + 2
B23: IgG1-F241 (antibody)
heavy: B1 heavy with F430G
light: not shown
notes: EU numbering; copies: 2 + 2
B24: IgG1-F245 (antibody)
heavy: B1 heavy with F430N
light: not shown
notes: EU numbering; copies: 2 + 2
B25: IgG1-F251 (antibody)
heavy: B1 heavy with F430V
light: not shown
notes: EU numbering; copies: 2 + 2
B26: IgG1-F283 (antibody)
heavy: B1 heavy with V310P, E384A, F430Y
light: not shown
notes: EU numbering; copies: 2 + 2
B27: IgG1-F260 (antibody)
heavy: B1 heavy with T309A, Q313A, F430M
light: not shown
notes: EU numbering; copies: 2 + 2
B28: IgG1-F246 (antibody)
heavy: B1 heavy with F430P
light: not shown
notes: EU numbering; copies: 2 + 2
B29: IgG1-F274 (antibody)
heavy: B1 heavy with E382A, E384A
light: not shown
notes: EU numbering; copies: 2 + 2
B30: IgG1-F261 (antibody)
heavy: B1 heavy with T309Q, Q313A, F430M
light: not shown
notes: EU numbering; copies: 2 + 2
B31: IgG1-F269 (antibody)
heavy: B1 heavy with V307A
light: not shown
notes: EU numbering; copies: 2 + 2
B32: IgG1-F255 (antibody)
heavy: B1 heavy with Y254W, Q313A, F430Y
light: not shown
notes: EU numbering; copies: 2 + 2
B33: IgG1-F280 (antibody)
heavy: B1 heavy with S241K, D272F, V310P, F430M
light: not shown
notes: EU numbering; copies: 2 + 2
B34: IgG1-F257 (antibody)
heavy: B1 heavy with T309A, F430Y
light: not shown
notes: EU numbering; copies: 2 + 2
B35: IgG1-F265 (antibody)
heavy: B1 heavy with E384A, F430Y
light: not shown
notes: EU numbering; copies: 2 + 2
B36: IgG1-F253 (antibody)
heavy: B1 heavy with F430Y
light: not shown
notes: EU numbering; copies: 2 + 2
B37: IgG1-F254 (antibody)
heavy: B1 heavy with Y254W, T309Q, F430Y
light: not shown
notes: EU numbering; copies: 2 + 2
B38: IgG1-F242 (antibody)
heavy: B1 heavy with F430H
light: not shown
notes: EU numbering; copies: 2 + 2
B39: IgG1-F258 (antibody)
heavy: B1 heavy with T309Q, F430Y
light: not shown
notes: EU numbering; copies: 2 + 2
B40: IgG1-F278 (antibody)
heavy: B1 heavy with T309Q, V310P, E384A, F430M
light: not shown
notes: EU numbering; copies: 2 + 2
B41: IgG1-F259 (antibody)
heavy: B1 heavy with D272F, F430M
light: not shown
notes: EU numbering; copies: 2 + 2
B42: IgG1-F267 (antibody)
heavy: B1 heavy with T309Q, E384A, F430Y
light: not shown
notes: EU numbering; copies: 2 + 2

Each binder was assayed against T1, human FcRn (soluble human FcRn complexed with β2-microglobulin) (human, UniProt P61769 21-119, limits assumed) (assay: SPR, pH 7.0;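 note: antibodies captured on a Protein L sensor chip with human FcRn injected as analyte, KD calculated from fitted association and dissociation rate constants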).
T1 construct: also called hFcRn

Kd | Binder
720 nM | B1
99 nM | B2
660 nM | B3
120 nM | B4
470 nM | B5
1000 nM | B6
680 nM | B7
640 nM | B8
42 nM | B9
61 nM | B10
630 nM | B11
180 nM | B12
54 nM | B13
110 nM | B14
190 nM | B15
100 nM | B16
440 nM | B17
290 nM | B18
130 nM | B19
29 nM | B20
1300 nM | B21

Kd | Binder
280 nM | B22
1500 nM | B23
470 nM | B24
190 nM | B25
100 nM | B26
130 nM | B27
1100 nM | B28
760 nM | B29
84 nM | B30
520 nM | B31
110 nM | B32
41 nM | B33
500 nM | B34
680 nM | B35
710 nM | B36
75 nM | B37
850 nM | B38
320 nM | B39
30 nM | B40
280 nM | B41
320 nM | B42
